Among the data in PMC2291074 (Molecular Vision, 2008) are binding result and light scattering values, retold here.

Ends that are not written are not given here.

For test [1], the target named is T1, recombinant human αB-crystallin (human, UniProt P02511 1-175).
T1 construct: human αB-crystallin, cDNA cloned into pET-23d(+); tryptic peptides 1-11 and 164-175 were observed; No tag is named and purification was by SEC and ion exchange, so it is probably untagged; source: E. coli BL21(DE3) pLysS, purified (size exclusion chromatography, then ion-exchange chromatography)
T1 sequence (looked up): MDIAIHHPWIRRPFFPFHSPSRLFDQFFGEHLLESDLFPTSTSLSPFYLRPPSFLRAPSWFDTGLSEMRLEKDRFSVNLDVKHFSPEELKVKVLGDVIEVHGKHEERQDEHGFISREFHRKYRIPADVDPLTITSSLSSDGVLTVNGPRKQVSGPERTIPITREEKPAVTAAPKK
The experiment in a line: cross-linking; sulfo-SBED label transfer: 0.25 mg derivatized peptide with 0.25 mg αB-crystallin at 37 °C for 2 h; unbound peptide removed on a 10,000 Da cut-off filter; photolysis at 365 nm for 15 min on ice; biotin on αB-crystallin detected by SDS-PAGE and avidin-HRP blot. Particulars: both partners purified.

Test [2] addresses T1, recombinant human αB-crystallin.

B1: sulfo-SBED-derivatized βA3/A1_(102–117) peptide (peptide)
peptide: SDAYHIERLMSFRPIC
modifications: also: sulfo-SBED cross-linker attached, site not given here
notes: The peptide has no lysine, so the amine-specific reagent probably sits on the N-terminal amine; also called biotin-derivatized peptide; source: synthetic peptide, purified by HPLC, derivatized with sulfo-SBED and dialyzed
For the molecule B1, the binding result in test [1] is listed as “binds”.

With SDADHGERLMSFRPIC [substituted peptide], the light scattering at 60 min of βL-crystallin (100 μg) denatured at 55 °C with 5 μg αB-crystallin and 60 μg substituted peptide (αB-crystallin alone: decreased by 41%); no anti-chaperone effect in test [2] was 53%.
